Results reported in US20250152742A1, “COMPOSITIONS AND METHODS FOR NEUROLOGICAL DISEASES” (Trames Bio, Inc., priority 2022, published 2025).
Positions count from the first letter of the chain named. Names may count otherwise.

System: engineered chimeric receptor SEQ ID NO: 33 and its mutants (human α7-nAChR ligand binding domain / human GlyRα1 ion pore domain) in Lenti-X 293T cells
Experiment: YFP fluorescence quenching anion reporter plate reader assay (percent quench, EC50)
Assay type: cell-based
Conditions: for YFP fluorescence quenching using CNL001 (percent quench): receptor named in row; for YFP fluorescence quenching using Facinicline, 30 nM fac: ligand Facinicline 30 nM; for YFP fluorescence quenching using Facinicline, 300 nM fac: ligand Facinicline 300 nM; for YFP fluorescence quenching using Facinicline, 30 uM fac: ligand Facinicline 30 uM; for YFP fluorescence quenching using TC-6987, 1 uM tc6987: ligand TC-6987 1 uM; for YFP fluorescence quenching using TC-6987, 10 uM tc6987: ligand TC-6987 10 uM; for YFP fluorescence quenching using TC-6987, 500 uM tc6987: ligand TC-6987 500 uM; for YFP fluorescence quenching using Varenicline, 3 nM var: ligand Varenicline 3 nM; for YFP fluorescence quenching using Varenicline, 30 nM var: ligand Varenicline 30 nM; for YFP fluorescence quenching using Varenicline, 300 nM var: ligand Varenicline 300 nM; for YFP fluorescence quenching using Varenicline, 500 nM var: ligand Varenicline 500 nM; for YFP fluorescence quenching using Varenicline, 1 uM var: ligand Varenicline 1 uM
Method in brief: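 Percent quench compares mean YFP signal over the final 10 s with the 15 s baseline before ligand, added in iodide-containing extracellular solution (pH 7.2). Cells were LX293T carrying a YFP anion reporter, transiently transfected with the channel construct; plates were preincubated 30 min at 37 °C.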

[1] = 1 nM CNL001, first column so headed
[2] = 1 nM CNL001, second column so headed
[3] = 3 nM brd (TC-5619/Bradanicline)
[4] = 10 nM CNL001, first column so headed
[5] = 10 nM CNL001, second column so headed
[6] = 30 nM brd (TC-5619/Bradanicline)
[7] = 50 nM CNL001, first column so headed
[8] = 50 nM CNL001, second column so headed
[9] = 100 nM CNL001, first column so headed
[10] = 100 nM CNL001, second column so headed
[11] = 300 nM brd (TC-5619/Bradanicline)
[12] = 1 uM CNL001, first column so headed
[13] = 1 uM CNL001, second column so headed

B1: CODA340: engineered receptor: L131E in SEQ ID NO: 33 (protein)
chain: MRCSPGGVWLALAASLLHVSLQGEFQRKLYKELVKNYNPLERPVANDSQPLTVYFSLSLLQIMDVDEKNQVLTTNIWLQMSWTDHYLQWNVSEYPGVKTVRFPDGQIWKPDILLYNSADERFDATFHTNVEVNSSGHCQYLPPGIFKSSCPMDLKNFPMDVQTCKLKFGSWSYGGWSLDLQMQEADISGYIPNGEWDLVGIPGKRSERFYECCKEPYPDVTFTVTMRRRMGYYLIQMYIPSLLIVILSWISFWINMDAAPARVGLGITTVLTMTTQSSGSRASLPKVSYVKAIDIWMAVCLLFVFSALLEYAAVNFVSRQHKELLRFRRKRRHHKSPMLNLFQEDEAGEGRFNFSAYGMGPACLQAKDGISVKGANNSNTTNPPPAPSKSPEEMRKLFIQRAKKIDKISRIGFPMAFLIFNMFYWIIYKIVRREDVHNQ
modifications: synthetic sequence of chimeric LGIC
[1]
  YFP fluorescence quenching using CNL001 (percent quench): 76.413%
[2]
  YFP fluorescence quenching using CNL001 (percent quench): 77.144%
[3]
  YFP fluorescence quenching using TC-5619/Bradanicline (percent quench): 68.57%
[4]
  YFP fluorescence quenching using CNL001 (percent quench): 78.258%
[5]
  YFP fluorescence quenching using CNL001 (percent quench): 78.763%
30 nM TC-6683
  YFP fluorescence quenching using TC-6683 (percent quench): 30.14%
[6]
  YFP fluorescence quenching using TC-5619/Bradanicline (percent quench): 76.85%
[7]
  YFP fluorescence quenching using CNL001 (percent quench): 79.757%
[8]
  YFP fluorescence quenching using CNL001 (percent quench): 79.327%
50 nM abt (ABT-126)
  YFP fluorescence quenching using ABT-126 (percent quench): 2.2%
[9]
  YFP fluorescence quenching using CNL001 (percent quench): 79.011%
[10]
  YFP fluorescence quenching using CNL001 (percent quench): 79.948%
100 nM CNL002
  YFP fluorescence quenching (percent quench): 49.97%
100 nM abt (ABT-126)
  YFP fluorescence quenching using ABT-126 (percent quench): 25.39%
100 nM azd0328
  YFP fluorescence quenching using AZD-0328 (percent quench): 82.48%
300 nM TC-6683
  YFP fluorescence quenching using TC-6683 (percent quench): 33.02%
300 nM abt (ABT-126)
  YFP fluorescence quenching using ABT-126 (percent quench): 36.48%
300 nM azd0328
  YFP fluorescence quenching using AZD-0328 (percent quench): 82.04%
[11]
  YFP fluorescence quenching using TC-5619/Bradanicline (percent quench): 78.49%
[12]
  YFP fluorescence quenching using CNL001 (percent quench): 79.855%
[13]
  YFP fluorescence quenching using CNL001 (percent quench): 80.618%
1 uM CNL002
  YFP fluorescence quenching (percent quench): 67.8%
1 uM abt (ABT-126)
  YFP fluorescence quenching using ABT-126 (percent quench): 50.76%
3 uM TC-6683
  YFP fluorescence quenching using TC-6683 (percent quench): 41.68%
10 uM ach (acetylcholine)
  YFP fluorescence quenching (percent quench): 15.29%
30 uM CNL002
  YFP fluorescence quenching (percent quench): 64.58%
30 uM TC-6683
  YFP fluorescence quenching using TC-6683 (percent quench): 35.75%
30 uM ach (acetylcholine)
  YFP fluorescence quenching (percent quench): 66.56%
30 uM azd0328
  YFP fluorescence quenching using AZD-0328 (percent quench): 81.8%
100 uM TC-6683
  YFP fluorescence quenching using TC-6683 (percent quench): 24.32%
100 uM ach (acetylcholine)
  YFP fluorescence quenching (percent quench): 81.31%
1 mM ach (acetylcholine)
  YFP fluorescence quenching (percent quench): 80.77%
3 mM ach (acetylcholine)
  YFP fluorescence quenching (percent quench): 77.31%
  YFP fluorescence quenching using Facinicline, 30 nM fac: 82.51
  YFP fluorescence quenching using Facinicline, 300 nM fac: 82.92
  YFP fluorescence quenching using Facinicline, 30 uM fac: 82.68
  YFP fluorescence quenching using TC-6987, 1 uM tc6987: 80.13
  YFP fluorescence quenching using TC-6987, 10 uM tc6987: 81.29
  YFP fluorescence quenching using TC-6987, 500 uM tc6987: 79.6
Ligand Facinicline 100 nM
  YFP fluorescence quenching using Facinicline, 100 nM fac: 83.6
First column
  YFP fluorescence quenching using Varenicline, 3 nM var: −4.061
  YFP fluorescence quenching using Varenicline, 30 nM var: 62.964
  YFP fluorescence quenching using Varenicline, 300 nM var: 74.912
  YFP fluorescence quenching using Varenicline, 500 nM var: 76.346
  YFP fluorescence quenching using Varenicline, 1 uM var: 75.805
Second column
  YFP fluorescence quenching using Varenicline, 3 nM var: −0.568
  YFP fluorescence quenching using Varenicline, 30 nM var: 63.631
  YFP fluorescence quenching using Varenicline, 300 nM var: 75.084
  YFP fluorescence quenching using Varenicline, 500 nM var: 75.876
  YFP fluorescence quenching using Varenicline, 1 uM var: 74.856

B2: CODA342: engineered receptor: L131R in SEQ ID NO: 33 (protein)
chain: B1 chain with E131R
modifications: synthetic sequence of chimeric LGIC
[1]
  YFP fluorescence quenching using CNL001 (percent quench): 23.532%
[2]
  YFP fluorescence quenching using CNL001 (percent quench): 26.054%
1 nM brd (TC-5619/Bradanicline)
  YFP fluorescence quenching using TC-5619/Bradanicline (percent quench): −7.83%
[3]
  YFP fluorescence quenching using TC-5619/Bradanicline (percent quench): −12.89%
[4]
  YFP fluorescence quenching using CNL001 (percent quench): 43.69%
[5]
  YFP fluorescence quenching using CNL001 (percent quench): 54.016%
10 nM brd (TC-5619/Bradanicline)
  YFP fluorescence quenching using TC-5619/Bradanicline (percent quench): −10.47%
30 nM TC-6683
  YFP fluorescence quenching using TC-6683 (percent quench): −16.26%
[6]
  YFP fluorescence quenching using TC-5619/Bradanicline (percent quench): 59.48%
[7]
  YFP fluorescence quenching using CNL001 (percent quench): 59.955%
[8]
  YFP fluorescence quenching using CNL001 (percent quench): 56.091%
50 nM abt (ABT-126)
  YFP fluorescence quenching using ABT-126 (percent quench): −18.14%
[9]
  YFP fluorescence quenching using CNL001 (percent quench): 64.536%
[10]
  YFP fluorescence quenching using CNL001 (percent quench): 58.987%
100 nM CNL002
  YFP fluorescence quenching (percent quench): −17.2%
100 nM abt (ABT-126)
  YFP fluorescence quenching using ABT-126 (percent quench): −18.14%
100 nM azd0328
  YFP fluorescence quenching using AZD-0328 (percent quench): 1.79%
100 nM brd (TC-5619/Bradanicline)
  YFP fluorescence quenching using TC-5619/Bradanicline (percent quench): 70.19%
300 nM TC-6683
  YFP fluorescence quenching using TC-6683 (percent quench): −22.45%
300 nM abt (ABT-126)
  YFP fluorescence quenching using ABT-126 (percent quench): −0.81%
300 nM azd0328
  YFP fluorescence quenching using AZD-0328 (percent quench): 66.58%
[11]
  YFP fluorescence quenching using TC-5619/Bradanicline (percent quench): 75.11%
500 nM abt (ABT-126)
  YFP fluorescence quenching using ABT-126 (percent quench): 23.29%
[12]
  YFP fluorescence quenching using CNL001 (percent quench): 65.987%
[13]
  YFP fluorescence quenching using CNL001 (percent quench): 64.312%
1 uM CNL002
  YFP fluorescence quenching (percent quench): 8.12%
1 uM abt (ABT-126)
  YFP fluorescence quenching using ABT-126 (percent quench): 45.76%
1 uM brd (TC-5619/Bradanicline)
  YFP fluorescence quenching using TC-5619/Bradanicline (percent quench): 77.42%
3 uM TC-6683
  YFP fluorescence quenching using TC-6683 (percent quench): −13.48%
3 uM abt (ABT-126)
  YFP fluorescence quenching using ABT-126 (percent quench): 53.03%
10 uM abt (ABT-126)
  YFP fluorescence quenching using ABT-126 (percent quench): 64.08%
10 uM ach (acetylcholine)
  YFP fluorescence quenching (percent quench): −2.57%
30 uM CNL002
  YFP fluorescence quenching (percent quench): 57.24%
30 uM TC-6683
  YFP fluorescence quenching using TC-6683 (percent quench): −12.68%
30 uM abt (ABT-126)
  YFP fluorescence quenching using ABT-126 (percent quench): 71.98%
30 uM azd0328
  YFP fluorescence quenching using AZD-0328 (percent quench): 80.55%
50 uM abt (ABT-126)
  YFP fluorescence quenching using ABT-126 (percent quench): 73.98%
100 uM TC-6683
  YFP fluorescence quenching using TC-6683 (percent quench): −10.33%
100 uM abt (ABT-126)
  YFP fluorescence quenching using ABT-126 (percent quench): 73.51%
100 uM ach (acetylcholine)
  YFP fluorescence quenching (percent quench): −3.18%
1 mM ach (acetylcholine)
  YFP fluorescence quenching (percent quench): 78.98%
3 mM ach (acetylcholine)
  YFP fluorescence quenching (percent quench): 75.75%
  YFP fluorescence quenching using Facinicline, 30 nM fac: −6.2
  YFP fluorescence quenching using Facinicline, 300 nM fac: 76.75
  YFP fluorescence quenching using Facinicline, 30 uM fac: 81.71
  YFP fluorescence quenching using TC-6987, 1 uM tc6987: 2.51
  YFP fluorescence quenching using TC-6987, 10 uM tc6987: 46.22
  YFP fluorescence quenching using TC-6987, 500 uM tc6987: 68.33
Ligand Facinicline 10 uM
  YFP fluorescence quenching using Facinicline, 10 uM fac: 82.16
First column
  YFP fluorescence quenching using Varenicline, 3 nM var: 0.271
  YFP fluorescence quenching using Varenicline, 30 nM var: −4.935
  YFP fluorescence quenching using Varenicline, 300 nM var: 0.282
  YFP fluorescence quenching using Varenicline, 500 nM var: 23.777
  YFP fluorescence quenching using Varenicline, 1 uM var: 66.17
Second column
  YFP fluorescence quenching using Varenicline, 3 nM var: −3.613
  YFP fluorescence quenching using Varenicline, 30 nM var: −4.363
  YFP fluorescence quenching using Varenicline, 300 nM var: 2.32
  YFP fluorescence quenching using Varenicline, 500 nM var: 18.376
  YFP fluorescence quenching using Varenicline, 1 uM var: 66.088
